{
  "source": "patent US20250049935",
  "about": "“BOTTLEBRUSH CONJUGATES FOR USE AS OLIGONUCLEOTIDE ENHANCERS” (Northeastern University, published 2025)",
  "binders": {"B1": {"name": "HD1 (structured_DNA)", "DNA": "GGTTGGTGTGGTTGG"}},
  "biological_target": "alpha thrombin (Homo sapiens, UniProt P00734;P00734 P00734:328-363,P00734:364-622)",
  "test": "MST; 20 mM HEPES pH 7.4, 150 mM NaCl, 2 mM CaCl2, 0.05% Tween; 10 nM thrombin",
  "data": [
    {"binder": "B1", "values": [
      {"measurement": "Kd", "value": 5.4, "unit": "nM"}
    ]}
  ]
}
